Experimental data reported in patent publication US20240376155A1, “NOVEL COMPOUNDS AND COMPOSITIONS FOR TARGETED THERAPY OF RENAL CANCERS” (SHANGHAI MICURX PHARMACEUTICAL CO., LTD., priority 2021, published 2024).
Like-named read-outs stand apart in the source and are kept apart here. Bridge positions count the residues as written; N and C are the ends. Square brackets hold non-standard residues; d marks the D form. Peptide text beside a SMILES is read from it. * marks the point of attachment. ξ: configuration not given here. X1 = CNC(=O)c1ccccc1Sc1ccc2c(/C=C/c3ccccn3)nn(C(=O)N(CCNC(=O)[C@@H](N)CCC(=O)O)CCC(=O)*)c2c1; X3 = CNC(=O)c1ccccc1Sc1ccc2c(/C=C/c3ccccn3)nn(C(=O)N(CCOC(=O)[C@@H](N)CCC(=O)O)CCC(=O)*)c2c1; X2 = CNC(=O)c1ccccc1Sc1ccc2c(/C=C/c3ccccn3)nn(C(=O)N(CCNC(=O)CC[C@H](N)C(=O)O)CCC(=O)*)c2c1; Thr(3ξ) = CC(O)[C@H](N)C(=O)O; Dab = NCC[C@H](N)C(=O)O; ξL = CC(C)CC(N)C(=O)O

Columns and labels:
[1] = axitinib therapy, human use; cited from earlier work
[2] = for Blood Plasma Conc. of axitinib / Blood Plasma Conc. of released axitinib / Kidney Tissue Conc. of released axitinib: mouse; for Blood Plasma Conc. of axitinib: oral gavage, single dose 30 mg/kg; for axitinib level in kidney tissues vs from axitinib itself: 3 mg/kg compound vs 30 mg/kg oral axitinib; for Blood Plasma Conc. of released axitinib / Kidney Tissue Conc. of released axitinib: injection, single dose 3 mg/kg; for Kidney Tissue Conc. of released axitinib: corrected for kidney tissue density
[3] = In vitro antibacterial activity (MIC); type: cell-based; details: relative to polymyxin antibiotics such as polymyxin B and colistin
in vivo = details: mouse, 3 mg/kg; for level at 3 h: iv
From the text: Preferential accumulation of compounds provided herein in kidneys (or near the site of a kidney cancer) may be evaluated by pharmacokinetic (PK) tests, such as in a standard rat PK test.

[4] = test system: luciferase-expressing A498 renal cancer cell line (A498-luc); details: 12 mg/kg/day ip vs axitinib at 30 mg/kg/day
Procedure: An illustrative efficacy study for the compounds described herein was investigated in an orthotopic mouse model. In this model, a luciferase-expressing A498 renal cancer cell line (A498-luc) was used. The cancer cells were implanted into a kidney capsule and the tumor growth and effect were monitored by the image size using IVIS Lumina III (Perkin Elmer) and mouse body weight changes. Specifically, mice were anesthetized by SC injection of Zolet™ m 50 (Virbac S. A.) after 24 h fasting. The skin of anesthetized mice was sterilized with iodine followed by alcohol. 4×10^6 luciferase-expressing A498-luc cells were implanted in the left kidney by insulin syringe. The skin incisions were closed with autosuture clip. The tumor growths were monitored by image analysis. […] At 10 mins after the luciferin injection, the mice were imaged (once a week). Living image software (Perkin Elmer) is used to compute regions of interest (ROI) and integrate the total bioluminescence signal in each ROI. Bioluminescent signals (photos/s) from ROI were quantified and used as an indicator of tumor growth and antitumor activity. Body weight of all mice were measured twice a week throughout the study.

HK-2 cell line = test: HK-2 cytotoxicity assay; type: cell-based, human
From the text: The assay is analogously to that described, for example, by Keirstead et al. in Toxicol. Sci. 2014, vol. 137, pp. 278-291.

[5] = 14-days repeat-dose mouse tolerability test; type: in vivo; details: dose of at least 18 mg/kg/day

CNC(=O)c1ccccc1Sc1ccc2c(/C=C/c3ccccn3)n[nH]c2c1 [Axitinib, N-methyl-2-[[3-[(E)-2-pyridin-2-ylethenyl]-1H-indazol-6-yl]sulfanyl]benzamide, reference compound]
incidence of hypertensive adverse effects [1]: 40-64% | Blood Plasma Conc. of axitinib ([2]; T = 3 h): T = 3 h: 397.3 ng/mL | Blood Plasma Conc. of axitinib ([2]; T = 6 h): T = 6 h: 75.6 ng/mL | Blood Plasma Conc. of axitinib ([2]; T = 12 h): T = 12 h: 11.4 ng/mL | Blood Plasma Conc. of axitinib ([2]; T = 24 h): T = 24 h: BLQ^d

CNC(=O)c1ccccc1Sc1ccc2c(/C=C/c3ccccn3)nn(C(=O)N(CCNC(=O)[C@@H](N)CCC(=O)O)CCC(=O)N[C@H](C(=O)N[C@@H](CCN)C(=O)N[C@H]3CCNC(=O)[C@H](C(C)O)NC(=O)[C@H](CCN)NC(=O)[C@H](CCN)NC(=O)[C@H](CC(C)C)NC(=O)[C@@H](Cc4ccccc4)NC(=O)[C@H](CCN)NC3=O)C(C)O)c2c1 (stereo partly shown) [Example 1] (X1-[Thr(3ξ)][Dab][Dab][Dab][dF]L[Dab][Dab][Thr(3ξ)]; lactam 3-C)
antibacterial activity (MIC, minimum inhibitory concentration) [3]: minimized antibacterial activity | axitinib level in kidney tissues vs from axitinib itself ([2]; at 3 h): 6.50 fold | axitinib level in kidney tissues vs from axitinib itself ([2]; at 6 h): about 15 fold | Blood Plasma Conc. of released axitinib ([2]; T = 3 h): T = 3 h: 9.7 ng/mL | Kidney Tissue Conc. of released axitinib ([2]; T = 3 h): T = 3 h: 1955.3 ng/mL | Blood Plasma Conc. of released axitinib ([2]; T = 6 h): T = 6 h: 4.0 ng/mL | Kidney Tissue Conc. of released axitinib ([2]; T = 6 h): T = 6 h: 1448.5 ng/mL | Blood Plasma Conc. of released axitinib ([2]; T = 12 h): T = 12 h: BLQ | Kidney Tissue Conc. of released axitinib ([2]; T = 12 h): T = 12 h: 1437.9 ng/mL | Blood Plasma Conc. of released axitinib ([2]; T = 24 h): T = 24 h: BLQ | Kidney-to-Blood Conc. Ratio (in vivo; T = 3 h after injection): 63 | level at 3 h (in vivo; kidney): 563 ng/mL | level at 3 h (in vivo; plasma): 9 ng/mL | body weight change (loss in weight) during efficacy study [4]: minimized loss in weight | In vitro human HK-2 assay IC50 (HK-2 cell line; HK-2 immortalized proximal tubule cells from normal human kidney): >100 µg/mL | fold less active than axitinib in HK-2 cytotoxicity assay (HK-2 cell line; vs axitinib (free drug form)): 2-3 fold | tolerability [5]: well-tolerated

CNC(=O)c1ccccc1Sc1ccc2c(/C=C/c3ccccn3)nn(C(=O)N(CCNC(=O)[C@@H](N)CCC(=O)O)CCC(=O)N[C@H]3CCNC(=O)[C@H]([C@@H](C)O)NC(=O)[C@H](CCN)NC(=O)[C@H](CCN)NC(=O)C(CC(C)C)NC(=O)[C@@H](Cc4ccccc4)NC(=O)[C@H](CCN)NC3=O)c2c1 (stereo partly shown) [Example 2] (X1-[Dab][Dab][dF][ξL][Dab][Dab]T; lactam 1-C)
Blood Plasma Conc. of released axitinib ([2]; T = 3 h): T = 3 h: 3.3 ng/mL | Kidney Tissue Conc. of released axitinib ([2]; T = 3 h): T = 3 h: 5140 ng/mL | Blood Plasma Conc. of released axitinib ([2]; T = 6 h): T = 6 h: BLQ | Kidney Tissue Conc. of released axitinib ([2]; T = 6 h): T = 6 h: 4630 ng/mL

CNC(=O)c1ccccc1Sc1ccc2c(/C=C/c3ccccn3)nn(C(=O)N(CCOC(=O)[C@@H](N)CCC(=O)O)CCC(=O)N[C@H]3CCNC(=O)[C@H]([C@@H](C)O)NC(=O)[C@H](CCN)NC(=O)[C@H](CCN)NC(=O)C(CC(C)C)NC(=O)[C@@H](Cc4ccccc4)NC(=O)[C@H](CCN)NC3=O)c2c1 (stereo partly shown) [Example 7] (X3-[Dab][Dab][dF][ξL][Dab][Dab]T; lactam 1-C)
Blood Plasma Conc. of released axitinib ([2]; T = 3 h): T = 3 h: 14.5 ng/mL | Kidney Tissue Conc. of released axitinib ([2]; T = 3 h): T = 3 h: 4280 ng/mL | Blood Plasma Conc. of released axitinib ([2]; T = 6 h): T = 6 h: BLQ | Kidney Tissue Conc. of released axitinib ([2]; T = 6 h): T = 6 h: 4860 ng/mL

CNC(=O)c1ccccc1Sc1ccc2c(/C=C/c3ccccn3)nn(C(=O)N(CCNC(=O)CC[C@H](N)C(=O)O)CCC(=O)N[C@H](C(=O)N[C@@H](CCN)C(=O)N[C@H]3CCNC(=O)[C@H]([C@@H](C)O)NC(=O)[C@H](CCN)NC(=O)[C@H](CCN)NC(=O)[C@H](CC(C)C)NC(=O)[C@@H](Cc4ccccc4)NC(=O)[C@H](CCN)NC3=O)[C@@H](C)O)c2c1 [Example 9, reference compound] (X2-T[Dab][Dab][Dab][dF]L[Dab][Dab]T; lactam 3-C)
Blood Plasma Conc. of released axitinib ([2]; T = 3 h): T = 3 h: 14.9 ng/mL | Kidney Tissue Conc. of released axitinib ([2]; T = 3 h): T = 3 h: 371.6 ng/mL | Blood Plasma Conc. of released axitinib ([2]; T = 6 h): T = 6 h: BLQ | Kidney Tissue Conc. of released axitinib ([2]; T = 6 h): T = 6 h: 28.8 ng/mL
